# According to IntAct's records for PubMed 16648636:
# B1: Monothiol glutaredoxin-3 (Saccharomyces cerevisiae), Q03835 (parent)
# chain: MPVIEINDQEQFTYLTTTAAGDKLIVLYFHTSWAEPCKALKQVFEAISNEPSNSNVSFLSIDADENSEISELFEISAVPYFIIIHKGTILKELSGADPKEYVSLLEDCKNSVNSGSSQTHTMENANVNEGSHNDEDDDDEEEEEETEEQINARLTKLVNAAPVMLFMKGSPSEPKCGFSRQLVGILREHQVRFGFFDILRDESVRQNLKKFSEWPTFPQLYINGEFQGGLDIIKESLEEDPDFLQHALQS
# partner: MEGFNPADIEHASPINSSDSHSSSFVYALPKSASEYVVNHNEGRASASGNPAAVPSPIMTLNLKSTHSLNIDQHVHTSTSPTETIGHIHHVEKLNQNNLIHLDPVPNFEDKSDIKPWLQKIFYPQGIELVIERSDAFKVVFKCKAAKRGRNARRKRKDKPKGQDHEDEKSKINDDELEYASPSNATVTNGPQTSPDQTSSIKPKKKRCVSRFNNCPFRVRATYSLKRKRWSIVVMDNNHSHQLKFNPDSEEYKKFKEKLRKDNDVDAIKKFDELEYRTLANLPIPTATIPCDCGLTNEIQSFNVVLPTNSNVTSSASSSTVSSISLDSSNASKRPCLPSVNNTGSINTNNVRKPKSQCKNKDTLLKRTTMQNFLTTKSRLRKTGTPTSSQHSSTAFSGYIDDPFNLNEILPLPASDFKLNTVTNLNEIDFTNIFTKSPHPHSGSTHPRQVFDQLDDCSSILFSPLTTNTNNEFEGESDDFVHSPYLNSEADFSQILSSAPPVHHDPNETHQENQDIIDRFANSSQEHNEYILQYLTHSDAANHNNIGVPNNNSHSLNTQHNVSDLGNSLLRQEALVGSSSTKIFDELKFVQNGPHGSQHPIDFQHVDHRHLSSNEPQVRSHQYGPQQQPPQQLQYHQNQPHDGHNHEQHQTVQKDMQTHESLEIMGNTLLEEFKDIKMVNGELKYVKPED
# B2: Monothiol glutaredoxin-4 (Saccharomyces cerevisiae), P32642 (parent)
# chain: MTVVEIKSQDQFTQLTTTNAANKLIVLYFKAQWADPCKTMSQVLEAVSEKVRQEDVRFLSIDADEHPEISDLFEIAAVPYFVFIQNGTIVKEISAADPKEFVKSLEILSNASASLANNAKGPKSTSDEESSGSSDDEEDETEEEINARLVKLVQAAPVMLFMKGSPSEPKCGFSRQLVGILREHQIRFGFFDILRDENVRQSLKKFSDWPTFPQLYINGEFQGGLDIIKESIEEDPEYFQHALQ
# partner: B1 partner
# Variants of: B1
# Conditions: with aft1_yeast AFT1, P22149
row,effect of a mutation on the interaction,Variant
1,disrupting interaction,MPVIEINDQEQFTYLTTTAAGDKLIVLYFHTSWAEPCKALKQVFEAISNEPSNSNVSFLSIDADENSEISELFEISAVPYFIIIHKGTILKELSGADPKEYVSLLEDCKNSVNSGSSQTHTMENANVNEGSHNDEDDDDEEEEEETEEQINARLTKLVNAAPVMLFMKGSPSEPKSGFSRQLVGILREHQVRFGFFDILRDESVRQNLKKFSEWPTFPQLYINGEFQGGLDIIKESLEEDPDFLQHALQS [C176S]

# Variants of: B2
# Conditions: with aft1_yeast AFT1, P22149
row,effect of a mutation on the interaction,Variant
1,disrupting interaction,MTVVEIKSQDQFTQLTTTNAANKLIVLYFKAQWADPCKTMSQVLEAVSEKVRQEDVRFLSIDADEHPEISDLFEIAAVPYFVFIQNGTIVKEISAADPKEFVKSLEILSNASASLANNAKGPKSTSDEESSGSSDDEEDETEEEINARLVKLVQAAPVMLFMKGSPSEPKSGFSRQLVGILREHQIRFGFFDILRDENVRQSLKKFSDWPTFPQLYINGEFQGGLDIIKESIEEDPEYFQHALQ [C171S]
